In article PMC13038214, “TNFSF13 insufficiency disrupts human colonic epithelial cell growth and associated B cell dynamics” (The Journal of Clinical Investigation, 2026):

T1: FAS ligand (FASL) used as analyte in SPR (human, UniProt P48023 103-281)
T1 construct: FAS ligand (FASL), the protein flowed over immobilised FAS in SPR as positive control; also called rFASL; recombinant human FAS ligand
T1 sequence (looked up): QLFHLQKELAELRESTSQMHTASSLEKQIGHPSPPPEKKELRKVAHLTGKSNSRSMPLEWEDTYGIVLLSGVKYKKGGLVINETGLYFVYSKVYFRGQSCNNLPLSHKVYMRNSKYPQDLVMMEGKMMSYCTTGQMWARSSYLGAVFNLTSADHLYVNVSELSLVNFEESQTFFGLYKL

B1: FAS immobilised for SPR (receptor, human, UniProt P25445 26-173, looked up)
chain: QVTDINSKGLELRKTVTTVETQNLEGLHHDGQFCHKPCPPGERKARDCTVNGDEPDCVPCQEGKEYTDKAHFSSKCRRCRLCDEGHGLEVEINCTRTQNTKCRCKPNFFCNSTVCEHCDPCTKCEHGIIKECTLTSNTKCKEEGSRSN
notes: FAS receptor, the protein immobilised in SPR; also called FAS receptor

Columns and labels:
FAS immobilised for SPR = target: B1; experiment: SPR; FAS immobilised; TNFSF13 or FASL at various concentrations; sensorgrams fitted to a 1:1 kinetic binding model; n = 3 independent experiments; conditions: both partners purified
[1] = target: T1, FAS ligand (FASL) used as analyte in SPR; experiment: as above; conditions: both partners purified

Row | Kd (FAS immobilised for SPR) | Kd [1] | Binder
1 | 60 nM | – | TNFSF13 used as analyte in SPR (ligand, human, UniProt O75888 105-250, looked up, TNFSF13 (APRIL), the protein flowed over immobilised FAS in SPR; also called TNSF13; APRIL) AVLTQKQKKQHSVLHLVPINATSKDDSDVTEVMWQPALRRGRGLQAQGYGVRIQDAGVYLLYSQVLFQDVTFTMGQVVSREGQGRQETLFRCIRSMPSHPDRAYNSCYSAGVFHLHQGDILSVIIPRARAKLNLSPHGTFLGFVKL
2 | – | 4.09 nM | B1
